Assay results: patent US20170209529A1 (BRIGHAM AND WOMEN S HOSPITAL, published 2017)
Values joined by “and” are separate entries in the source; they are usually repeats but may differ in a detail not shown here. Equal entries are not always repeated. Bridge positions count the residues as written; N and C are the ends.

Experiments:
[1] = molecular target: T1, soluble human FcRn (shFcRn) (human, UniProt P55899 24-297; P61769 21-119); test: SPR (Biacore), immobilized shFcRn, pH 6, steady-state fit
T1 construct: For crystallography it was expressed in CHOK1SV cells and deglycosylated with PNGaseF; biotinylated for phage selection; also called hFcRn/β2m; FcRn-biotin

[2] = molecular target: T1, soluble human FcRn (shFcRn); test: SPR (Biacore), immobilized shFcRn, pH 7.4
[3] = molecular target: T1, soluble human FcRn (shFcRn); test: SPR (Biacore), Kd pH 7.4 divided by Kd pH 6.0

Kd [1]	Kd [2] [nM]	Kd Ratio 7.4/6.0 [3]	Binder
162 nM	20200	125	Ac-VMRCWWDEEMLCRAF-NH2 (disulfide 4-12 (inferred)) [SYN1534]
267 nM	18900	71	Ac-VMKCWWDEEMLCEAF-NH2 (disulfide 4-12 (inferred)) [SYN1538]
104 nM	8600	83	Ac-VMKCWWDEEMLCRYF-NH2 (disulfide 4-12 (inferred)) [SYN1539]
702 nM	–	–	Ac-VMKCWWDEEMLCRAV-NH2 (disulfide 4-12 (inferred); not fully specified) [SYN1540B]
2600 nM	91300	35	Ac-VMKCFWDEEMLCRAF-NH2 (disulfide 4-12 (inferred)) [SYN1535]

More lines, now with the values behind:

Binder	Kd [1]	Kd [2] [nM]	Kd Ratio 7.4/6.0 [3]
Ac-VMACFWDEEFKCDQG-NH2 (disulfide 4-12 (inferred)) [SYN1215]	2840 nM	–	–
Ac-VMHCFWDEGFKCDQG-NH2 (disulfide 4-12 (inferred)) [SYN1257]	1450 nM	40000	–
Ac-AGVMKCWWDEEMLCRAFGTGGGK-NH2 (disulfide 6-14 (inferred)) [SYN531]	450 nM and 300 nM	44400	99
Ac-MTCKWDDGFSCEYV-NH2 (disulfide 3-11 (inferred)) [SYN1161]	1210 nM and 1170 nM	–	–
Ac-AMTCKWDDGFSCEYV-NH2 (disulfide 4-12 (inferred)) [SYN1144]	1250 nM	29100	23.3
Ac-YMTCKWDDGFSCAYV-NH2 (disulfide 4-12 (inferred)) [SYN1154]	–	9200	20
Ac-YMTCKWDDAFSCEYV-NH2 (disulfide 4-12 (inferred)) [SYN1151]	1500 nM and 830 nM	20700	25
Ac-YMTCKWADGFSCEYV-NH2 (disulfide 4-12 (inferred)) [SYN1149]	1540 nM	12000	7.8
Ac-YMTCKWDDGFSCEAV-NH2 (disulfide 4-12 (inferred)) [SYN1155]	1760 nM	17300	9.8
Ac-YMTCKWDDGFSCEYA-NH2 (disulfide 4-12 (inferred)) [SYN1156]	580 nM	22000	38
Ac-VMKCWWDEEMLCRAF-NH2 (disulfide 4-12 (inferred)) [SYN1532]	154 nM	17300	112
Ac-VMHCWWDEEMLCRAF-NH2 (disulfide 4-12 (inferred)) [SYN1533]	558 nM	59100	106
